From the Human Domainome abundance scans (Beltran et al. 2025)

B1: Zinc finger MYM-type protein 6, residues 427 to 504; numbered along this chain, O95789 (parent)
chain: KLKCQHCNHLFATKPELLFYKGKMFLFCGKNCSDEYKKKNKVVAMCDYCKLQKIIKETVRFSGVDKPFCSEVCKFLSA

Variants of: B1
Test: abundance fitness (aPCA) (normalised: wild type 0, dead -1); higher = more abundant; growth selection in yeast, the domain comes from the species named
Details: Homo sapiens

Abundance fitness of substitutions, site by site:
H9: E -0.028, Y 0.015, R 0.037, S -0.032, G 0.014
L2: C -0.089, R 0.014, S 0.031, V 0.01, D 0.069, I -0.06, P -0.068, E 0.109, Q 0.099, W -0.119, F 0.018, G 0.082, T 0.125, H -0.131, A 0.096, M 0.048
K1: H -0.209, Q -0.194, S -0.131, V -0.355, G -0.229, C -0.147, L -0.271, W -0.536, A -0.276, F -0.697, E -0.104, M -0.252, D -0.008
K3: W -0.243, Q -0.032, R -0.075, D -0.186, V -0.138, P -0.071, E 0.001, M -0.192, N -0.011, G -0.078, S 0.021, C -0.163, L -0.073, Y -0.132, F -0.116, H -0.156, T -0.102, I -0.124
C7: L -0.951, Q -0.887, E -0.722, F -0.845, V -1.11, K -0.451, N -0.23, S -0.823, I -1.02, H -0.575, T -0.792, P -1.07, G -0.442, M -0.76, W -0.919
C4: P -0.681, E -0.81, A -0.74, W -1.11, S -0.702, D -0.879, R -0.877, H -0.649, K -0.687, G -0.772, L -0.698, V -0.758, M -1.05
T13: K -0.056, N -0.128, G -0.024, I 0.031, E -0.06, P -0.128, H -0.039, Q -0.093, L -0.176, A -0.074, D -0.146, C -0.201
Q5: W -0.206, L -0.118, G -0.041, I -0.156, A -0.023, S -0.248, K -0.194, D -0.405, E -0.33, Y -0.057, T -0.113, V -0.077, P -0.204, R -0.226
N8: L -0.015, K 0.01, C -0.015, H -0.117, S 0.042, F -0.172, T -0.067, Y -0.264, P -0.129, W -0.154, V -0.088, A 0.013, R -0.02, Q 0.044, I -0.168, E 0.018, M -0.009
F11: P -0.049, W -0.207, G -0.171, M -0.134, I -0.25, C -0.098, L -0.129, D -0.339, T 0.014, V 0.031, S -0.094, H -0.354, K -0.13, R -0.198
L10: Y -0.026, P 0.034, K 0.017, E 0.063, V -0.002, W 0.004, A 0.051, G 0.049, S -0.066, T -0.085, D -0.002, C -0.05, R 0.063, I -0.135, Q 0.023, F 0.107
A12: H -0.132, T -0.056, V -0.223, P -0.131, D -0.047, N -0.218, I 0.062, Y -0.205, K 0.008, W -0.134, C -0.096, F -0.181, S -0.072, M -0.105
